Test [1] has as its target T1, human TGFβ3, mature dimeric form (human, UniProt P10600 301-412).
T1 construct: Peprotech, expressed in E. coli; also called TGFb3
T1 sequence: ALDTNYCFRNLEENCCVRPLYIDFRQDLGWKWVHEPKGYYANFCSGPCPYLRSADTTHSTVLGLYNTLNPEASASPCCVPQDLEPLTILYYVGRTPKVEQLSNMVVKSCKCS
The test is described as follows: SPR. On the technique in general: SPR reads the build-up and loss of mass on a sensor chip optically.

The target in test [2] is T2, human TGFβ2, mature receptor-binding domain (human, UniProt P09858 303-414 (pig entry), The mature TGFβ2 is a disulfide-linked homodimer of this 112-residue chain. The 4A11 epitope spans both monomers (p-1207).).
T2 construct: Peprotech; also called TGFb2
T2 sequence: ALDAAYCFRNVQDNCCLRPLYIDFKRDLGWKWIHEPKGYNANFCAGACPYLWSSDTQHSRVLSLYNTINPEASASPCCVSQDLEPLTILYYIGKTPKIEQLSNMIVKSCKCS
The test is described as follows: SPR.

In test [3] the target is T3, human TGFβ1, mature receptor-binding domain (human, UniProt P01137 279-390).
T3 construct: Peprotech; also called TGFb1
T3 sequence (P01137 279-390 limits assumed): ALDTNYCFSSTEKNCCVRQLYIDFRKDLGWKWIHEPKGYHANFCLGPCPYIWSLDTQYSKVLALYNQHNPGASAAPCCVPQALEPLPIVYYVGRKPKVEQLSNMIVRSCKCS
The experiment in a line: BIAcore T200. Put shortly:
(§1)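 Humanized antibodies captured on protein A CM5 chip (~100 RU), then 3-fold serial dilutions of TGFβ (0.02–5 nM) injected in HBS-EP pH 7.4 at 25° C., 50 μl/min. kon and koff from 1:1 Langmuir fit; KD = koff/kon.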

Test [4] addresses T1, human TGFβ3, mature dimeric form. The experiment in a line: BIAcore T200. Put shortly:
as §1

The target of test [5] is T2, human TGFβ2, mature receptor-binding …. The experiment in a line: BIAcore T200. The method, boiled down: as §1
For test [6] the target is unchanged. The test is described as follows: Biacore SPR.
Test [7] has as its target T4, mouse TGFβ2, mature peptide (mouse, UniProt P27090 303-414).
T4 construct: mature
T4 sequence (looked up): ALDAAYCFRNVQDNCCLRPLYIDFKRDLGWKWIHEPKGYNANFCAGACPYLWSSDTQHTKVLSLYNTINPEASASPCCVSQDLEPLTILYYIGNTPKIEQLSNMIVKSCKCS
The test is described as follows: Biacore SPR.

Test [8] deals with T3, human TGFβ1, mature receptor-binding …. The experiment in a line: cell-based or functional assay.
Test [9] has as its target T1, human TGFβ3, mature dimeric form. The test is described as follows: cell-based or functional assay.
Test [10] has as its target T2, human TGFβ2, mature receptor-binding …. The experiment in a line: cell-based or functional assay.
Test [11] shares this target. The test is described as follows: cell-based or functional assay. This is another data set of the same source.
In test [12] the target is T4, mouse TGFβ2, mature peptide. The experiment in a line: cell-based or functional assay.
In test [13] the target is T1, human TGFβ3, mature dimeric form. The experiment in a line: SPR. This is another data set of the same source.
Test [14] addresses T2, human TGFβ2, mature receptor-binding …. The test is described as follows: SPR. This is another data set of the same source.
Test [15] has as its target T3, human TGFβ1, mature receptor-binding …. The experiment in a line: cell-based or functional assay. This is another data set of the same source.
Test [16] addresses T1, human TGFβ3, mature dimeric form. The experiment in a line: cell-based or functional assay. The source holds these as a separate data set.
The target in test [17] is T2, human TGFβ2, mature receptor-binding …. The experiment in a line: cell-based or functional assay. This is another data set of the same source.
Test [18] has as its target T1, human TGFβ3, mature dimeric form. The experiment in a line: BIAcore T200. On the procedure:
(§2) For binding affinity determinations of all humanized 2A10 antibodies, Surface Plasmon Resonance (SPR) measurement with a BIAcore™-T200 instrument was used. Briefly, series S CM5 biosensor chip with protein A was first applied to capture each humanized 2A10 variant to achieve approximately 100 response units (RU) on each flow cell, following by injection of 3-fold serial dilutions of human TGFβ1, TGFβ2 or TGFβ3 (0.02 nM to 5 nM) in HBS-EP buffer (0.01M HEPES pH 7.4, 0.15M NaCl, 3 mM EDTA and 0.05% v/v surfactant P20) at 25° C. with a flow rate of 50 μl/min for kinetics measurement. Association rates (ko.) and dissociation rates (koff) were calculated using a simple one-to-one Langmuir binding model (BIAcore T200 evaluation software version 2.0) to determine the equilibrium dissociation constant (KD), which was calculated as the ratio koff/kₒₙ.
(§3) Binding affinity determinations of all humanized 4A11 antibodies were performed using SPR measurement with a BIAcore™-T200 instrument, as described above in Example 6 ([…]).
This is another data set of the same source.

In test [19] the target is T2, human TGFβ2, mature receptor-binding …. The test is described as follows: BIAcore T200. On the procedure: as §2, §3
This is another data set of the same source.

Test [20] addresses T1, human TGFβ3, mature dimeric form. The test is described as follows: cell-based or functional assay. This is another data set of the same source.
For test [21], the target named is T2, human TGFβ2, mature receptor-binding …. The experiment in a line: cell-based or functional assay. The source holds these as a separate data set.

Some results are limits rather than exact numbers.

By Kd is commonly meant a measure of binding affinity in units of concentration.

B1: 4A11 (antibody, V domains shown)
VH: QSLEESGGRLVTPGTPLTLTCTVSGFSLSSYTVNWVRQAPGKGLEWIGYISYGGSAYYASWANGRFTISKTSATVDLKITSPTTEDTATYFCARHMQVGGAPTGSMAAFDPWGPGTLVTVSS
VL: AAVLTQTPSPVSAAVGGTVSISCQSSQSVYNNNYLSWFQQKPGQPPKLLIYGASTLTSGVPSRFKGSGSGTQFTLTISDVQCDDAATYYCAGGYSGSSDKYAFGGGTEVVVKG
notes: anti-TGFβ2/3, recombinant rabbit monoclonal; some paragraphs print the H/L pair as 32/33; also called Rb1.4A11; Rbt 4A11
Consider B1, for which the Kd in test [1] was less than 0.01 nM; in test [2] it was less than 0.01 nM; in test [3], greater than 5 nM; in test [4], 0.0012 nM; in test [5], 0.0016 nM; in test [6], 0.008 nM. Also, the Kd in test [7] is less than 0.002 nM; in test [13], 0.005 nM; in test [14] it was 0.008 nM; in test [18], no more than 0.0012 nM; in test [19], 0.0016 nM. The “HEKBlue TGFβ blocking IC50” value in [8] is greater than 200 nM; in test [9] it was 0.06 nM; in [10], 0.09 nM. The “IC50 (read off the curve)” value in test [11] is roughly 0.06 nM; in test [12], roughly 0.07 nM. Besides, the “Blocking IC50” value in test [15] was greater than 500 nM; in [16] it was 0.03 nM; in test [17] it was 0.25 nM. Further, the “cell-based IC50” value in test [20] and in test [21] was less than 0.25 nM throughout.

For the origin of these results see US20210301005A1 (Genentech, published 2021).
